Target: EGFR on A431 cells (human) (UniProt P00533)
Assay: cell-based or functional assay

## anti-EGFR antibody (clone 225: the original antibody of cetuximab, Calbiochem)
  inhibition of EGFR phosphorylation in A431 cells: 40%

Source: US20130131322A1
